Experimental data reported in article PMC3665621 (Nuclear medicine and biology, 2013).

Experiments:
[1] = system: HPAC tumor-bearing SCID mice; details: mouse, in vivo
cathepsin B = details: room temperature, up to 96 hours

Substance	increase of tumor accumulation from 24 h to 72 h post-injection [1]	lower liver retention compared to control (177Lu-MAC0) [1]	cleaved bond (cathepsin B)
X = GSS, Y = PMGLP [177Lu-MAC2]	113%	2.1 fold	–
DO3A(tBu)3-G- (D)S(tBu)-(D)S(tBu)-G- G-G-F	–	–	G-G, 24 h
